Test results published in the supplement of paper PMC7877785.
± gives the uncertainty stated by the source.

Test: self-splicing fitness, log relative to wild type (ln ratio); higher = more splicing; Tetrahymena group I intron in knt gene, E. coli kanamycin selection, DiMSum; sequences stand for … in CUCUCU…GGAGGGAAAAGUUAUCAGGCAUGCACCUGGUAGCUAGUCUUUAAACCAAUAGAUUGCAUCGGUUUAAAAGGCAAGACCGUCAAAUUGCGGGAAAGGGGUCAACAGCCGUUCAGUACCAAGUCUCAGGGGAAACUUUGAGAUGGCCUUGCAAAGGGUAUGGUAAUAAGCUGACGGACAUGGUCCUAACCACGCAGCCAAGUCCUAAGUCAACAGAUCUUCUGUUGAUAUGGAUGCAGUUCACAGACUAAAUGUCGGUCGGGGAAGAUGUAUUCUUCUCAUAAGAUAUAGUCGGACCUCUCCUUAAUGGGAGCUAGCGGAUGAAGUGAUGCAACACUGGAGCCGCUGGGAACUAAUUUGUAUGCGAAAGUAUAUUGAUUAGUUUUGGAGUACUCGUGGUCG
Method in brief: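 Library with all eight P1ex-region intron nucleotides randomised, intron inside the knt kanamycin-resistance gene on pET-22b(+), in E. coli BL21(DE3). Cells grew overnight at 37°C or 30°C on LB agar with or without 25 μg/mL kanamycin (plus 100 μg/mL carbenicillin, 50 μM IPTG, 0.2% rhamnose), in six replicate transformations. Pooled colonies were amplicon-sequenced on Illumina HiSeq 2500. DiMSum fitness is the error-weighted combination of wild-type-normalised replicate fold changes, kanamycin versus none.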

Sequence	self-splicing fitness (ln) (30 °C)	self-splicing fitness (ln) (37 °C)
CCGAAGCAAUAUUACGUCGC	-3.18 ± 0.26	-3.07 ± 0.34
CCGAAGCAAUAUUACGUCGG	-3.35 ± 0.2	-2.59 ± 0.31
CCGAAGCAAUAUUACGUGAC	–	-1.4 ± 0.2
CCGAAGCAAUAUUACGUGUU	-3.93 ± 0.16	-2.89 ± 0.15
CCGAAGCAAUAUUACGUUGU	-4.15 ± 0.32	-3.37 ± 0.24
CCGCAGCAAUAUUACGACAG	-0.485 ± 0.063	0.0928 ± 0.088
CCGCAGCAAUAUUACGAGGU	-3.73 ± 0.2	-1.84 ± 0.19
CCGCAGCAAUAUUACGAUCC	-3.04 ± 0.19	-2.71 ± 0.36
CCGCAGCAAUAUUACGAUGA	-3.2 ± 0.38	–
CCGCAGCAAUAUUACGAUGC	-4.08 ± 0.28	-2.88 ± 0.23
CCGCAGCAAUAUUACGAUGG	-4.91 ± 0.28	-2.52 ± 0.2
CCGCAGCAAUAUUACGCGCG	-3.21 ± 0.2	-1.9 ± 0.17
CCGCAGCAAUAUUACGCGUU	-3.51 ± 0.14	-2.29 ± 0.14
CCGCAGCAAUAUUACGCUAU	-3.78 ± 0.3	-3.04 ± 0.25
CCGCAGCAAUAUUACGCUCA	–	-1.28 ± 0.21
CCGCAGCAAUAUUACGCUGA	-3.21 ± 0.34	–
CCGCAGCAAUAUUACGGCCA	-4.11 ± 0.31	-2.51 ± 0.26
CCGCAGCAAUAUUACGGCGG	-4.17 ± 0.22	-3.33 ± 0.26
CCGCAGCAAUAUUACGGGCC	-2.9 ± 0.25	-2.34 ± 0.29
CCGCAGCAAUAUUACGGGGA	-3.59 ± 0.15	-2.35 ± 0.15
CCGCAGCAAUAUUACGGUAC	-3.8 ± 0.17	-2.8 ± 0.2
CCGCAGCAAUAUUACGGUAU	-4.73 ± 0.23	-3.44 ± 0.17
CCGCAGCAAUAUUACGUACC	-3.7 ± 0.28	-3.08 ± 0.47
CCGCAGCAAUAUUACGUAGG	-2.6 ± 0.068	-2.95 ± 0.13
CCGCAGCAAUAUUACGUCGA	-1.06 ± 0.059	-0.16 ± 0.069

Sequence	self-splicing fitness (ln) (30 °C)	self-splicing fitness (ln) (37 °C)
CCGCAGCAAUAUUACGUGUU	-3.84 ± 0.14	-3.1 ± 0.21
CCGGAGCAAUAUUACGAAAU	-3.2 ± 0.27	-0.842 ± 0.37
CCGGAGCAAUAUUACGAACC	–	-1.97 ± 0.41
CCGGAGCAAUAUUACGAGAC	-2.99 ± 0.38	–
CCGGAGCAAUAUUACGAGAU	-3.24 ± 0.18	-3.52 ± 0.35
CCGGAGCAAUAUUACGAGGC	-1.99 ± 0.34	-2.86 ± 0.38
CCGGAGCAAUAUUACGAUUA	-3.79 ± 0.37	-1.17 ± 0.3
CCGGAGCAAUAUUACGCCUG	-2.36 ± 0.24	-1.8 ± 0.24
CCGGAGCAAUAUUACGCGCA	-2.85 ± 0.21	-2.29 ± 0.22
CCGGAGCAAUAUUACGCUAA	-2.65 ± 0.26	-2.96 ± 0.35
CCGGAGCAAUAUUACGCUGA	-1.42 ± 0.29	-1.75 ± 0.45
CCGGAGCAAUAUUACGGCAA	-1.63 ± 0.22	-2.48 ± 0.31
CCGGAGCAAUAUUACGGGAA	-2.09 ± 0.32	-2.13 ± 0.37
CCGGAGCAAUAUUACGGGGC	-3.78 ± 0.26	-2.55 ± 0.44
CCGGAGCAAUAUUACGGGUU	-3.85 ± 0.39	-2.67 ± 0.37
CCGGAGCAAUAUUACGGUAU	-4.05 ± 0.2	-3.34 ± 0.22
CCGGAGCAAUAUUACGUUUG	-1.54 ± 0.15	-0.756 ± 0.15
CCGUAGCAAUAUUACGAAAG	-1.37 ± 0.088	0.537 ± 0.1
CCGUAGCAAUAUUACGAAUA	-2.99 ± 0.28	–
CCGUAGCAAUAUUACGCAUG	-0.123 ± 0.14	-1.09 ± 0.13
CCGUAGCAAUAUUACGCCCG	-0.871 ± 0.15	-0.0634 ± 0.21
CCGUAGCAAUAUUACGCGGG	-4.02 ± 0.33	-3.61 ± 0.39
CCGUAGCAAUAUUACGCGUG	-2.72 ± 0.15	-1.22 ± 0.12
CCGUAGCAAUAUUACGCUAA	-3.32 ± 0.35	-1.35 ± 0.36
CCGUAGCAAUAUUACGGCCA	–	-2.19 ± 0.35

Sequence	self-splicing fitness (ln) (30 °C)	self-splicing fitness (ln) (37 °C)
CCGUAGCAAUAUUACGGGCG	-2.81 ± 0.17	-1.34 ± 0.14
CCGUAGCAAUAUUACGGGGG	-4.09 ± 0.24	-3.23 ± 0.26
CCGUAGCAAUAUUACGGGUU	-3.9 ± 0.17	-1.57 ± 0.16
CCGUAGCAAUAUUACGUAGU	-3.13 ± 0.19	-3.05 ± 0.33
CCGUAGCAAUAUUACGUCCU	-3 ± 0.24	-2.62 ± 0.3
CCGUAGCAAUAUUACGUUAU	-2.06 ± 0.12	-2.35 ± 0.23
CCGUAGCAAUAUUACGUUCC	-3.11 ± 0.47	–
CCGUAGCAAUAUUACGUUUC	-3.05 ± 0.16	-3.47 ± 0.29
CCUAAGCAAUAUUACGAACG	-1.68 ± 0.13	-0.478 ± 0.14
CCUAAGCAAUAUUACGACCU	-3.17 ± 0.35	-2.34 ± 0.31
CCUAAGCAAUAUUACGAGCU	-2.2 ± 0.33	-1.93 ± 0.27
CCUAAGCAAUAUUACGAUGG	-2.4 ± 0.16	-2.09 ± 0.17
CCUAAGCAAUAUUACGCCGA	-0.993 ± 0.49	-1.98 ± 0.37
CCUAAGCAAUAUUACGCGCU	-2.38 ± 0.22	-2.75 ± 0.3
CCUAAGCAAUAUUACGCUCA	-3.32 ± 0.27	-3.18 ± 0.4
CCUAAGCAAUAUUACGGACU	-3.46 ± 0.35	-2.29 ± 0.36
CCUAAGCAAUAUUACGGCCC	-2.37 ± 0.29	–
CCUAAGCAAUAUUACGGGAG	-4.51 ± 0.24	-2.93 ± 0.21
CCUAAGCAAUAUUACGGGGC	-2.45 ± 0.2	-2.61 ± 0.22
CCUAAGCAAUAUUACGGUAC	-2.81 ± 0.22	-2.17 ± 0.34
CCUAAGCAAUAUUACGUAAU	-2.38 ± 0.18	-0.984 ± 0.29
CCUAAGCAAUAUUACGUACC	-4.63 ± 0.46	-2.75 ± 0.31
CCUAAGCAAUAUUACGUACG	-1.94 ± 0.13	-0.851 ± 0.13
CCUAAGCAAUAUUACGUACU	-3.76 ± 0.43	-3.01 ± 0.29
CCUAAGCAAUAUUACGUAUU	-4.79 ± 0.39	-3.07 ± 0.2

Sequence	self-splicing fitness (ln) (30 °C)	self-splicing fitness (ln) (37 °C)
CCUAAGCAAUAUUACGUCAU	-4.09 ± 0.22	-2.83 ± 0.22
CCUAAGCAAUAUUACGUCGG	-2.3 ± 0.29	-1.51 ± 0.24
CCUAAGCAAUAUUACGUCGU	-3.14 ± 0.39	-2.08 ± 0.19
CCUAAGCAAUAUUACGUCUC	-3.01 ± 0.11	-3.11 ± 0.19
CCUAAGCAAUAUUACGUCUG	-2.15 ± 0.2	-2 ± 0.24
CCUAAGCAAUAUUACGUGAG	-1.2 ± 0.057	-0.711 ± 0.076
CCUAAGCAAUAUUACGUUAU	-3.35 ± 0.17	-2.85 ± 0.24
CCUAAGCAAUAUUACGUUGC	-3.6 ± 0.24	-3.42 ± 0.34
CCUAAGCAAUAUUACGUUUC	-2.52 ± 0.2	-2.97 ± 0.27
CCUCAGCAAUAUUACGACGA	-4.04 ± 0.33	-2.86 ± 0.3
CCUCAGCAAUAUUACGAGUA	-3.06 ± 0.21	-2.38 ± 0.21
CCUCAGCAAUAUUACGAUCC	-2.43 ± 0.44	–
CCUCAGCAAUAUUACGAUCU	-3.75 ± 0.27	-2.79 ± 0.23
CCUCAGCAAUAUUACGCCAA	-2.26 ± 0.23	–
CCUCAGCAAUAUUACGCCGA	-3.12 ± 0.24	-3.48 ± 0.27
CCUCAGCAAUAUUACGCUUA	-4.1 ± 0.3	-2.11 ± 0.16
CCUCAGCAAUAUUACGCUUC	-3.45 ± 0.39	-3.01 ± 0.33
CCUCAGCAAUAUUACGCUUU	-3.07 ± 0.14	-2.79 ± 0.21
CCUCAGCAAUAUUACGGAGU	-2.26 ± 0.089	-1.03 ± 0.09
CCUCAGCAAUAUUACGGCAG	-2.91 ± 0.18	-1.15 ± 0.13
CCUCAGCAAUAUUACGGCGC	-3.57 ± 0.2	-2.45 ± 0.3
CCUCAGCAAUAUUACGGCGU	-3.42 ± 0.21	-2.64 ± 0.27
CCUCAGCAAUAUUACGGGAG	-3.4 ± 0.14	-2.42 ± 0.15
CCUCAGCAAUAUUACGGGAU	-4.21 ± 0.2	-2.55 ± 0.17
